Non-standard residues stand in square brackets, D forms with d. No end group written: not given here. Ala(1H-tetrazol-5-yl) = N[C@@H](Cc1nnn[nH]1)C(=O)O; Tz = tetrazole-substituted aspartic acid; Aib = CC(C)(N)C(=O)O

In one assay the target is T1, VPAC1 receptor (UniProt P32241 31-457, limits assumed).
T1 sequence (looked up): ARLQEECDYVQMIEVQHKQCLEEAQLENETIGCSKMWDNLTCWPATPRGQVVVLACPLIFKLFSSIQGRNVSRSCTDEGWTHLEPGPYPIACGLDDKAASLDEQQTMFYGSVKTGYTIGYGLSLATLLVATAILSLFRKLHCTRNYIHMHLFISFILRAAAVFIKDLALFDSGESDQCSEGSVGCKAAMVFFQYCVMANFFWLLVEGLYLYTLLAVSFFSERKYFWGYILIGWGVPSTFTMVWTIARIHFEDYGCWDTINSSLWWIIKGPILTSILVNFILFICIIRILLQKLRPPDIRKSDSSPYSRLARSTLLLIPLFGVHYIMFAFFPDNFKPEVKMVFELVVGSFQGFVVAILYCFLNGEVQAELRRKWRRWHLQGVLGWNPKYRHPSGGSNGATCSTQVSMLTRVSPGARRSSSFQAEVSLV
Description: cell-based or functional assay.

A further assay deals with T2, PAC1 receptor (UniProt P41586 21-468, limits assumed).
T2 sequence (looked up): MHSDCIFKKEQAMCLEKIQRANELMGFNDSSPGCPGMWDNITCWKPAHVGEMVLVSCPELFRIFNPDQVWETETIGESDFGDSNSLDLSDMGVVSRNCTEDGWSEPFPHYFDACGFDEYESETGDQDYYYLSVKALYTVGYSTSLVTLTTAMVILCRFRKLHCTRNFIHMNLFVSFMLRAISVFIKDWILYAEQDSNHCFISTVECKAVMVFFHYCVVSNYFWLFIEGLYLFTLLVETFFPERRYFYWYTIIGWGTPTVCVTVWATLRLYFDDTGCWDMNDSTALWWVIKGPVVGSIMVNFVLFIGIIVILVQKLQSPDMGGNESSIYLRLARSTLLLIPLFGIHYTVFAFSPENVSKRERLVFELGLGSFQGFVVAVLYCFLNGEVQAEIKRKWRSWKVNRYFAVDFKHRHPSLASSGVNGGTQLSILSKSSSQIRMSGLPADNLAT
Nature of the assay: cell-based or functional assay.

Regarding HS[Tz]GIFT[Tz]SYSRYRKQMAVKKYLA-NH2 (also: Tz racemic) [Peptide 8], the “EC50, cAMP assay (Hit Hunter cAMP, chemiluminescence RLU)” value (from here on “EC50, cAMP assay”) is 0.045 nM with VPAC1 receptor and 0.679 nM with PAC1 receptor.

B1: Peptide 15 (peptide)
peptide: HSXGIFTXSYSRYRKQXAVKKYLAAVL
modifications: D-form tetrazole-substituted aspartic acid (Tz(D)) at position 3; tetrazole-substituted aspartic acid (Tz) at position 8; norleucine (Nl) at position 17; C-terminal amide (NH2)
Take B1: the figures for the “EC50, cAMP assay” value with VPAC1 receptor and with PAC1 receptor were 0.243 nM and 0.079 nM, respectively.

B2: Peptide 19 (peptide)
peptide: HSXGIFTXSYSRYRKQXAVKKYLAAVL
modifications: N-terminal (CH3)2CHCO; tetrazole-substituted aspartic acid (Tz) at positions 3 and 8; norleucine (Nl) at position 17; C-terminal amide (NH2)
For the molecule B2, the “EC50, cAMP assay” value with VPAC1 receptor is 0.069 nM; in the assay with PAC1 receptor it was 0.256 nM.

Take HS[Tz]GIFT[Tz][Aib]Y[Aib]RYRKQMAVKKYLAAVL-NH2 (also: Tz racemic) [Peptide 7]: the “EC50, cAMP assay” value in the assay with VPAC1 receptor is 0.096 nM; in the assay with PAC1 receptor, 0.319 nM.

B3: Peptide 12 (peptide)
peptide: MHSXGIFTXSYSRYRKQLAVKKYLAAVL
modifications: tetrazole-substituted aspartic acid (Tz) at positions 4 and 9 of this 28-residue peptide (positions 3 and 8 of PACAP27); C-terminal amide (NH2)
For B3, the “EC50, cAMP assay” value was determined as 0.651 nM with VPAC1 receptor and 4.28 nM with PAC1 receptor.

Turning to Ac-HA[Tz]GIFT[Tz]SYSRYRKALAVKKYLAAVL-NH2 [Peptide 26], the “EC50, cAMP assay” value is 0.068 nM with VPAC1 receptor and 0.209 nM with PAC1 receptor.

B4: Peptide 18 (peptide)
peptide: HSXGIFTXSYSRYRKQXAVKKYLAAVL
modifications: N-terminal CH3CH2CH2CO; tetrazole-substituted aspartic acid (Tz) at positions 3 and 8; norleucine (Nl) at position 17; C-terminal amide (NH2)
Take B4: the entries for the “EC50, cAMP assay” value in the assay with VPAC1 receptor and with PAC1 receptor were 0.069 nM and 0.189 nM, respectively.

B5: Peptide 17 (peptide)
peptide: HSXGIFTXSYSRYRKQXAVKKYLAAVL
modifications: N-terminal CH3CH2CO; tetrazole-substituted aspartic acid (Tz) at positions 3 and 8; norleucine (Nl) at position 17; C-terminal amide (NH2)
Regarding B5, the “EC50, cAMP assay” value in the assay with VPAC1 receptor was found to be 0.071 nM; with PAC1 receptor, 0.398 nM.

B6: Peptide 25 (peptide)
peptide: HAXGIFAXSYSRYRKQLAVKKYLAAVL
modifications: N-terminal Ac; tetrazole-substituted aspartic acid (Tz) at positions 3 and 8; C-terminal amide (NH2)
B6: the “EC50, cAMP assay” value is 0.041 nM with VPAC1 receptor and 0.693 nM with PAC1 receptor.

B7: Peptide 9 (peptide)
peptide: HSXGIFTXSYSRYRKQMAVKKYLAAV
modifications: tetrazole-substituted aspartic acid (Tz, racemic) at positions 3 and 8; C-terminal amide (NH2)
As to B7, the “EC50, cAMP assay” value in the assay with VPAC1 receptor worked out at 0.079 nM; with PAC1 receptor it was 0.287 nM.

In the case of HS[Tz]GIFA[Tz][Aib]Y[Aib]RYRKQMAVKKYLAAVL-NH2 (also: Tz racemic) [Peptide 6], the “EC50, cAMP assay” value with VPAC1 receptor came to 0.11 nM; in the assay with PAC1 receptor, 1.17 nM.

B8: Peptide 14 (peptide)
peptide: HSXGIFTXSYSRYRKQXAVKKYLAAVL
modifications: tetrazole-substituted aspartic acid (Tz) at position 3; D-form tetrazole-substituted aspartic acid (Tz(D)) at position 8; norleucine (Nl) at position 17; C-terminal amide (NH2)
For B8, the figures for the “EC50, cAMP assay” value in the assay with VPAC1 receptor and with PAC1 receptor were 0.107 nM and 0.857 nM, respectively.

B9: Peptide 21 (peptide)
peptide: HSXGIFTXSYSRYRKQXAVKKYLAAVL
modifications: N-terminal (CH3)2CHCH2CO; tetrazole-substituted aspartic acid (Tz) at positions 3 and 8; norleucine (Nl) at position 17; C-terminal amide (NH2)
Regarding B9, the “EC50, cAMP assay” value with VPAC1 receptor worked out at 0.141 nM; with PAC1 receptor it was 1.13 nM.

B10: Peptide 28 (peptide)
peptide: HSXGIFAXSYSRYRKALAVKKYLAAVL
modifications: N-terminal Ac; tetrazole-substituted aspartic acid (Tz) at positions 3 and 8; C-terminal amide (NH2)
With B10, the “EC50, cAMP assay” value amounted to 0.072 nM in the assay with VPAC1 receptor and 2.12 nM in the assay with PAC1 receptor.

With HS[Tz]GIFA[Tz][Aib]YSRYRKQMAVKKYLAAVL-NH2 (also: Tz racemic) [Peptide 4], the “EC50, cAMP assay” value with VPAC1 receptor worked out at 0.121 nM; with PAC1 receptor, 2.36 nM.

B11: Peptide 13 (peptide)
peptide: HSXGIFTXSYSRYRKQXAVKKYLAAVL
modifications: D-form tetrazole-substituted aspartic acid (Tz(D)) at positions 3 and 8; norleucine (Nl) at position 17; C-terminal amide (NH2)
Turning to B11, the “EC50, cAMP assay” value came out at 0.082 nM in the assay with VPAC1 receptor and 0.738 nM with PAC1 receptor.

On to HS[Ala(1H-tetrazol-5-yl)]GIFA[Ala(1H-tetrazol-5-yl)]AYSRYRKQMAVKKYLAAVL-NH2 (also: Tz racemic at 3 and 8) [Peptide 1], for which the figures for the “EC50, cAMP assay” value with VPAC1 receptor and with PAC1 receptor were 0.097 nM and 1.22 nM, respectively.

B12: Peptide 29 (peptide)
peptide: HSXGIFAXSYSRYRKQAAVKKYLAAVL
modifications: N-terminal Ac; tetrazole-substituted aspartic acid (Tz) at positions 3 and 8; C-terminal amide (NH2)
In the case of B12, the “EC50, cAMP assay” value in the assay with VPAC1 receptor is 0.123 nM; with PAC1 receptor, 3.28 nM.

B13: Peptide 16 (peptide)
peptide: HSXGIFTXSYSRYRKQXAVKKYLAAVL
modifications: tetrazole-substituted aspartic acid (Tz) at position 3; tetrazole-substituted glutamic acid (egTz) at position 8; norleucine (Nl) at position 17; C-terminal amide (NH2)
Turning to B13, the “EC50, cAMP assay” value with VPAC1 receptor came to 0.142 nM; with PAC1 receptor, 1.62 nM.

With HS[Tz]GIFA[Tz]SY[Aib]RYRKQMAVKKYLAAVL-NH2 (also: Tz racemic) [Peptide 5], the “EC50, cAMP assay” value turned out to be 0.078 nM in the assay with VPAC1 receptor and 0.695 nM with PAC1 receptor.

B14: Peptide 27 (peptide)
peptide: HSXGIFAXAYSRYRKQLAVKKYLAAVL
modifications: N-terminal Ac; tetrazole-substituted aspartic acid (Tz) at positions 3 and 8; C-terminal amide (NH2)
As to B14, the “EC50, cAMP assay” value in the assay with VPAC1 receptor was determined as 0.111 nM; with PAC1 receptor, 2.53 nM.

B15: Peptide 11 (peptide)
peptide: HSXGIFTXSYSRYRKQXAVKKYLAAVL
modifications: sulfoxy-substituted aspartic acid (cya) at positions 3 and 8; norleucine (Nl) at position 17; C-terminal amide (NH2)
For B15, the entries for the “EC50, cAMP assay” value with VPAC1 receptor and with PAC1 receptor were 0.08 nM and 0.911 nM, respectively.

B16: Peptide 23 (peptide)
peptide: HSXGAFTXSYSRYRKQLAVKKYLAAVL
modifications: N-terminal Ac; tetrazole-substituted aspartic acid (Tz) at positions 3 and 8; C-terminal amide (NH2)
Turning to B16, the “EC50, cAMP assay” value with VPAC1 receptor was determined as 0.047 nM; in the assay with PAC1 receptor, 1.15 nM.

B17: Peptide 22 (peptide)
peptide: HSXGIFTXSYSRYRKQXAVKKYLAAVL
modifications: N-terminal Ac (CH3CO); oxadiazolone-substituted aspartic acid (5Oxa) at positions 3 and 8; norleucine (Nl) at position 17; C-terminal amide (NH2)
For the molecule B17, the “EC50, cAMP assay” value with VPAC1 receptor turned out to be 0.077 nM; with PAC1 receptor it was 0.376 nM.

B18: Peptide 10 (peptide)
peptide: HSXGIFTXSYSRYRKQLAVKKYLAAVL
modifications: sulfoxy-substituted aspartic acid (cya) at positions 3 and 8; C-terminal amide (NH2)
Turning to B18, the results for the “EC50, cAMP assay” value with VPAC1 receptor and in the assay with PAC1 receptor were 0.057 nM and 0.447 nM, respectively.

On to HS[Tz]GIFA[Tz]SYARYRKQMAVKKYLAAVL-NH2 (also: Tz racemic) [Peptide 2], for which the “EC50, cAMP assay” value in the assay with VPAC1 receptor was 0.085 nM; in the assay with PAC1 receptor it was 0.61 nM.

B19: Peptide 24 (peptide)
peptide: HSXGIFAXSYSRYRKQLAVKKYLAAVL
modifications: N-terminal Ac; tetrazole-substituted aspartic acid (Tz) at positions 3 and 8; C-terminal amide (NH2)
Regarding B19, the “EC50, cAMP assay” value with VPAC1 receptor was determined as 0.042 nM; with PAC1 receptor, 1.26 nM.

B20: Peptide 20 (peptide)
peptide: HSXGIFTXSYSRYRKQXAVKKYLAAVL
modifications: not fully specified; N-terminal CH3CH2CH2CH2CO; tetrazole-substituted aspartic acid (Tz) at positions 3 and 8; norleucine (Nl) at position 17; C-terminal amide (NH2)
For B20, the “EC50, cAMP assay” value was 0.131 nM in the assay with VPAC1 receptor and 0.574 nM with PAC1 receptor.

The values above are taken from patent US20250263459A1, “STABILIZED PACAP PEPTIDE” (SENJU PHARMACEUTICAL CO., LTD., priority 2019, published 2025).
